The values that follow come from patent US20250339532A1 (FATE THERAPEUTICS, published 2025).

This experiment deals with CD38 (UniProt P28907 1-300, limits assumed). The experiment can be described thus: cell-based or functional assay.

B1: daratumumab (antibody, V domains shown)
VH: EVQLLESGGGLVQPGGSLRLSCAVSGFTFNSFAMSWVRQAPGKGLEWVSAISGSGGGTYYADSVKGRFTISRDNSKNTLYLQMNSLRAEDTAVYFCAKDKILWFGEPVFDYWGQGTLVTVSS
VL: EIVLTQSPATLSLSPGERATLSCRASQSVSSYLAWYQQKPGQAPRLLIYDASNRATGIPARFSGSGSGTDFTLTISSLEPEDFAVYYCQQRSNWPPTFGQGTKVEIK
On to B1, for which the “fold reduction of CD38+ T cell counts in co-cultures with daratumumab against the control condition” value is ~15 fold and the “fold reduction of CD38+ pbNK cell counts in co-cultures with daratumumab against the control condition” value is ~21 fold.
